We go through ten molecules from patent publication US10919943B2, “Mutant proteins enabling agrochemical control of plant gene expression” (The Regents of the University of California, priority 2016, dated 2021).

For this assay, the target named is T1, PYR1 (Arabidopsis thaliana, UniProt O49686).
T1 construct: expressed in transfected cells; host or cells: S. cerevisiae strain Y190
T1 sequence (O49686 1-191): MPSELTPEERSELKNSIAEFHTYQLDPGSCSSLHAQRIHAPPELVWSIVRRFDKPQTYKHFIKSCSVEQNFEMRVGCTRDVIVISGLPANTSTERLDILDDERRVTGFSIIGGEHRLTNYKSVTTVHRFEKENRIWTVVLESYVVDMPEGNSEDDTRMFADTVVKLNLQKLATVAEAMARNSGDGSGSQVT
Kind of assay: Yeast two hybrid of pACT-HAB1 site saturation mutants with pBD-PYR1 on 10 μM ABA, β-galactosidase staining. Details: key: x: Mutations in HAB1 that disrupt HAB1 interaction with PYR1. Particulars: S. cerevisiae Y190, 10 μM ABA; dead = lack of detectable staining in comparison to wild type control. In kind it is cell-based. Summed up:
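Read-out is β-galactosidase staining of chloroform-lysed Y190 colonies grown 2 days at 30 °C on SD (-Leu,-Trp) plus 10 μM ABA. Each pACT-HAB1 single-substitution mutant (N-terminally truncated by three residues) was paired with pBD-PYR1; absence of detectable staining relative to wild type scored as dead.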

B1: R389E: HAB1 mutant (protein, UniProt Q9CAJ0 23-511, looked up, variant R389E)
Protein phosphatase 2C 16: SPVEITQLKNVTDAADLLSDSENQSFCNGGTECTMEDVSELEEVGEQDLLKTLSDTRSGSSNVFDEDDVLSVVEDNSAVISEGLLVVDAGSELSLSNTAMEIDNGRVLATAIIVGESSIEQVPTAEVLIAGVNQDTNTSEVVIRLPDENSNHLVKGRSVYELDCIPLWGTVSIQGNRSEMEDAFAVSPHFLKLPIKMLMGDHEGMSPSLTHLTGHFFGVYDGHGGHKVADYCRDRLHFALAEEIERIKDELCKRNTGEGRQVQWDKVFTSCFLTVDGEIEGKIGRAVVGSSDKVLEAVASETVGSTAVVALVCSSHIVVSNCGDSRAVLFRGKEAMPLSVDHKPDREDEYARIENAGGKVIQWQGAEVFGVLAMSRSIGDRYLKPYVIPEPEVTFMPRSREDECLILASDGLWDVMNNQEVCEIARRRILMWHKKNGAPPLAERGKGIDPACQAAADYLSMLALQKGSKDNISIIVIDLKAQRKFKTRT
B1: the “Mutations in HAB1 that disrupt HAB1 interaction with PYR1” value (shortened to “Mutations”) is recorded as “x”.

B2: F391D: HAB1 mutant (protein, UniProt Q9CAJ0 23-511, looked up, variant F391D)
Protein phosphatase 2C 16: SPVEITQLKNVTDAADLLSDSENQSFCNGGTECTMEDVSELEEVGEQDLLKTLSDTRSGSSNVFDEDDVLSVVEDNSAVISEGLLVVDAGSELSLSNTAMEIDNGRVLATAIIVGESSIEQVPTAEVLIAGVNQDTNTSEVVIRLPDENSNHLVKGRSVYELDCIPLWGTVSIQGNRSEMEDAFAVSPHFLKLPIKMLMGDHEGMSPSLTHLTGHFFGVYDGHGGHKVADYCRDRLHFALAEEIERIKDELCKRNTGEGRQVQWDKVFTSCFLTVDGEIEGKIGRAVVGSSDKVLEAVASETVGSTAVVALVCSSHIVVSNCGDSRAVLFRGKEAMPLSVDHKPDREDEYARIENAGGKVIQWQGARVDGVLAMSRSIGDRYLKPYVIPEPEVTFMPRSREDECLILASDGLWDVMNNQEVCEIARRRILMWHKKNGAPPLAERGKGIDPACQAAADYLSMLALQKGSKDNISIIVIDLKAQRKFKTRT
With B2, the “Mutations” value is given as “x”.

B3: R389H: HAB1 mutant (protein, UniProt Q9CAJ0 23-511, looked up, variant R389H)
Protein phosphatase 2C 16: SPVEITQLKNVTDAADLLSDSENQSFCNGGTECTMEDVSELEEVGEQDLLKTLSDTRSGSSNVFDEDDVLSVVEDNSAVISEGLLVVDAGSELSLSNTAMEIDNGRVLATAIIVGESSIEQVPTAEVLIAGVNQDTNTSEVVIRLPDENSNHLVKGRSVYELDCIPLWGTVSIQGNRSEMEDAFAVSPHFLKLPIKMLMGDHEGMSPSLTHLTGHFFGVYDGHGGHKVADYCRDRLHFALAEEIERIKDELCKRNTGEGRQVQWDKVFTSCFLTVDGEIEGKIGRAVVGSSDKVLEAVASETVGSTAVVALVCSSHIVVSNCGDSRAVLFRGKEAMPLSVDHKPDREDEYARIENAGGKVIQWQGAHVFGVLAMSRSIGDRYLKPYVIPEPEVTFMPRSREDECLILASDGLWDVMNNQEVCEIARRRILMWHKKNGAPPLAERGKGIDPACQAAADYLSMLALQKGSKDNISIIVIDLKAQRKFKTRT
Turning to B3, the “Mutations” value is on record as “x”.

B4: G392A: HAB1 mutant (protein, UniProt Q9CAJ0 23-511, looked up, variant G392A)
Protein phosphatase 2C 16: SPVEITQLKNVTDAADLLSDSENQSFCNGGTECTMEDVSELEEVGEQDLLKTLSDTRSGSSNVFDEDDVLSVVEDNSAVISEGLLVVDAGSELSLSNTAMEIDNGRVLATAIIVGESSIEQVPTAEVLIAGVNQDTNTSEVVIRLPDENSNHLVKGRSVYELDCIPLWGTVSIQGNRSEMEDAFAVSPHFLKLPIKMLMGDHEGMSPSLTHLTGHFFGVYDGHGGHKVADYCRDRLHFALAEEIERIKDELCKRNTGEGRQVQWDKVFTSCFLTVDGEIEGKIGRAVVGSSDKVLEAVASETVGSTAVVALVCSSHIVVSNCGDSRAVLFRGKEAMPLSVDHKPDREDEYARIENAGGKVIQWQGARVFAVLAMSRSIGDRYLKPYVIPEPEVTFMPRSREDECLILASDGLWDVMNNQEVCEIARRRILMWHKKNGAPPLAERGKGIDPACQAAADYLSMLALQKGSKDNISIIVIDLKAQRKFKTRT
Consider B4, for which the “Mutations” value is reported as “x”.

B5: R389K: HAB1 mutant (protein, UniProt Q9CAJ0 23-511, looked up, variant R389K)
Protein phosphatase 2C 16: SPVEITQLKNVTDAADLLSDSENQSFCNGGTECTMEDVSELEEVGEQDLLKTLSDTRSGSSNVFDEDDVLSVVEDNSAVISEGLLVVDAGSELSLSNTAMEIDNGRVLATAIIVGESSIEQVPTAEVLIAGVNQDTNTSEVVIRLPDENSNHLVKGRSVYELDCIPLWGTVSIQGNRSEMEDAFAVSPHFLKLPIKMLMGDHEGMSPSLTHLTGHFFGVYDGHGGHKVADYCRDRLHFALAEEIERIKDELCKRNTGEGRQVQWDKVFTSCFLTVDGEIEGKIGRAVVGSSDKVLEAVASETVGSTAVVALVCSSHIVVSNCGDSRAVLFRGKEAMPLSVDHKPDREDEYARIENAGGKVIQWQGAKVFGVLAMSRSIGDRYLKPYVIPEPEVTFMPRSREDECLILASDGLWDVMNNQEVCEIARRRILMWHKKNGAPPLAERGKGIDPACQAAADYLSMLALQKGSKDNISIIVIDLKAQRKFKTRT
In the case of B5, the “Mutations” value is recorded as “x”.

B6: R389F: HAB1 mutant (protein, UniProt Q9CAJ0 23-511, looked up, variant R389F)
Protein phosphatase 2C 16: SPVEITQLKNVTDAADLLSDSENQSFCNGGTECTMEDVSELEEVGEQDLLKTLSDTRSGSSNVFDEDDVLSVVEDNSAVISEGLLVVDAGSELSLSNTAMEIDNGRVLATAIIVGESSIEQVPTAEVLIAGVNQDTNTSEVVIRLPDENSNHLVKGRSVYELDCIPLWGTVSIQGNRSEMEDAFAVSPHFLKLPIKMLMGDHEGMSPSLTHLTGHFFGVYDGHGGHKVADYCRDRLHFALAEEIERIKDELCKRNTGEGRQVQWDKVFTSCFLTVDGEIEGKIGRAVVGSSDKVLEAVASETVGSTAVVALVCSSHIVVSNCGDSRAVLFRGKEAMPLSVDHKPDREDEYARIENAGGKVIQWQGAFVFGVLAMSRSIGDRYLKPYVIPEPEVTFMPRSREDECLILASDGLWDVMNNQEVCEIARRRILMWHKKNGAPPLAERGKGIDPACQAAADYLSMLALQKGSKDNISIIVIDLKAQRKFKTRT
B6: the “Mutations” value is “x”.

B7: R389G: HAB1 mutant (protein, UniProt Q9CAJ0 23-511, looked up, variant R389G)
Protein phosphatase 2C 16: SPVEITQLKNVTDAADLLSDSENQSFCNGGTECTMEDVSELEEVGEQDLLKTLSDTRSGSSNVFDEDDVLSVVEDNSAVISEGLLVVDAGSELSLSNTAMEIDNGRVLATAIIVGESSIEQVPTAEVLIAGVNQDTNTSEVVIRLPDENSNHLVKGRSVYELDCIPLWGTVSIQGNRSEMEDAFAVSPHFLKLPIKMLMGDHEGMSPSLTHLTGHFFGVYDGHGGHKVADYCRDRLHFALAEEIERIKDELCKRNTGEGRQVQWDKVFTSCFLTVDGEIEGKIGRAVVGSSDKVLEAVASETVGSTAVVALVCSSHIVVSNCGDSRAVLFRGKEAMPLSVDHKPDREDEYARIENAGGKVIQWQGAGVFGVLAMSRSIGDRYLKPYVIPEPEVTFMPRSREDECLILASDGLWDVMNNQEVCEIARRRILMWHKKNGAPPLAERGKGIDPACQAAADYLSMLALQKGSKDNISIIVIDLKAQRKFKTRT
Regarding B7, the “Mutations” value is “x”.

B8: F391E: HAB1 mutant (protein, UniProt Q9CAJ0 23-511, looked up, variant F391E)
Protein phosphatase 2C 16: SPVEITQLKNVTDAADLLSDSENQSFCNGGTECTMEDVSELEEVGEQDLLKTLSDTRSGSSNVFDEDDVLSVVEDNSAVISEGLLVVDAGSELSLSNTAMEIDNGRVLATAIIVGESSIEQVPTAEVLIAGVNQDTNTSEVVIRLPDENSNHLVKGRSVYELDCIPLWGTVSIQGNRSEMEDAFAVSPHFLKLPIKMLMGDHEGMSPSLTHLTGHFFGVYDGHGGHKVADYCRDRLHFALAEEIERIKDELCKRNTGEGRQVQWDKVFTSCFLTVDGEIEGKIGRAVVGSSDKVLEAVASETVGSTAVVALVCSSHIVVSNCGDSRAVLFRGKEAMPLSVDHKPDREDEYARIENAGGKVIQWQGARVEGVLAMSRSIGDRYLKPYVIPEPEVTFMPRSREDECLILASDGLWDVMNNQEVCEIARRRILMWHKKNGAPPLAERGKGIDPACQAAADYLSMLALQKGSKDNISIIVIDLKAQRKFKTRT
For B8, the “Mutations” value was “x”.

B9: R389I: HAB1 mutant (protein, UniProt Q9CAJ0 23-511, looked up, variant R389I)
Protein phosphatase 2C 16: SPVEITQLKNVTDAADLLSDSENQSFCNGGTECTMEDVSELEEVGEQDLLKTLSDTRSGSSNVFDEDDVLSVVEDNSAVISEGLLVVDAGSELSLSNTAMEIDNGRVLATAIIVGESSIEQVPTAEVLIAGVNQDTNTSEVVIRLPDENSNHLVKGRSVYELDCIPLWGTVSIQGNRSEMEDAFAVSPHFLKLPIKMLMGDHEGMSPSLTHLTGHFFGVYDGHGGHKVADYCRDRLHFALAEEIERIKDELCKRNTGEGRQVQWDKVFTSCFLTVDGEIEGKIGRAVVGSSDKVLEAVASETVGSTAVVALVCSSHIVVSNCGDSRAVLFRGKEAMPLSVDHKPDREDEYARIENAGGKVIQWQGAIVFGVLAMSRSIGDRYLKPYVIPEPEVTFMPRSREDECLILASDGLWDVMNNQEVCEIARRRILMWHKKNGAPPLAERGKGIDPACQAAADYLSMLALQKGSKDNISIIVIDLKAQRKFKTRT
Turning to B9, the “Mutations” value is recorded as “x”.

B10: F391P: HAB1 mutant (protein, UniProt Q9CAJ0 23-511, looked up, variant F391P)
Protein phosphatase 2C 16: SPVEITQLKNVTDAADLLSDSENQSFCNGGTECTMEDVSELEEVGEQDLLKTLSDTRSGSSNVFDEDDVLSVVEDNSAVISEGLLVVDAGSELSLSNTAMEIDNGRVLATAIIVGESSIEQVPTAEVLIAGVNQDTNTSEVVIRLPDENSNHLVKGRSVYELDCIPLWGTVSIQGNRSEMEDAFAVSPHFLKLPIKMLMGDHEGMSPSLTHLTGHFFGVYDGHGGHKVADYCRDRLHFALAEEIERIKDELCKRNTGEGRQVQWDKVFTSCFLTVDGEIEGKIGRAVVGSSDKVLEAVASETVGSTAVVALVCSSHIVVSNCGDSRAVLFRGKEAMPLSVDHKPDREDEYARIENAGGKVIQWQGARVPGVLAMSRSIGDRYLKPYVIPEPEVTFMPRSREDECLILASDGLWDVMNNQEVCEIARRRILMWHKKNGAPPLAERGKGIDPACQAAADYLSMLALQKGSKDNISIIVIDLKAQRKFKTRT
As for B10, the “Mutations” value was “x”.
